Laboratory results as given in the RNAGym collection of RNA variant scans (doi:10.7554/elife.90254).

B1: OR4K15 (parent)
chain: GUUAACGGUCAUAGGCCAUGGAAACUAGGAGCACCAUUUCGCUGCCAGUGAAGAAAUGAACAAAGAAAAUCUGGGCCAGGCAGGCAUCAAAAGAAAUAGUCUUGCGCUCAACCAGAAAGUCUGUAAUCAUUUUAAGGGUA

Variants of: B1
Assay: self-cleavage, relative activity (ratio to wild type); higher = more cleavage; in vitro, sequencing; the parent is a self-cleaving ribozyme
In the case of GUUAACGGUCAUAGGCCAUGGAAACUAGGAGCACCAUUUCGCUGCCAGUGAAGAAAUGAACAAAGAAAAUCUGGGCCAGGCAGGCAUCAAAAGAAACAGUCUUGCGCCCAACCAGAAAGUCUGUAAUCAUUUUAAGGGUA [U97C U108C], the self-cleavage is reported as 0.04.
In the case of GUUAACGGUCAUAGGCCAUGGAAACUAGGAGCACCAUUUCGCUGCCAGUGAAGAAAUGAACAAAGAAAAUCUGGGCCAGGCAGGCAUCAAAAGAAACAGUCUUGCGCACAACCAGAAAGUCUGUAAUCAUUUUAAGGGUA [U97C U108A], the self-cleavage is reported as 0.
With GUUAACGGUCAUAGGCCAUGGAAACUAGGAGCACCAUUUCGCUGCCAGUGAAGAAAUGAACAAAGAAAAUCUGGGCCAGGCAGGCAUCAAAAGAAAAAGUCUUGCGCUCAACCAGAAAGUCUGUAAUCACUUUAAGGGUA [U97A U130C] the self-cleavage was 1.59.
Work on GUUAACGGUCAUAGGCCAUGGAAACUAGGAGCACCAUUUCGCUGCCAGUGAAGAAAUGAACAAAGAAAAUCUGGGCCAGGCAGGCAUCAAAAGAAACAGUCUUGCGCUCAACCAGAAAGUCUGUAGUCAUUUUAAGGGUA [U97C A126G] yielded a self-cleavage of 1.22.
With GUUAACGGUCAUAGGCCAUGGAAACUAGGAGCACCAUUUCGCUGCCAGUGAAGAAAUGAACAAAGAAAAUCUGGGCCAGGCAGGCAUCAAAAGAAAUGGUCUUGCGCUCGACCAGAAAGUCUGUAAUCAUUUUAAGGGUA [A98G A110G] the self-cleavage was 0.06.
GUUAACGGUCAUAGGCCAUGGAAACUAGGAGCACCAUUUCGCUGCCAGUGAAGAAAUGAACAAAGAAAAUCUGGGCCAGGCAGGCAUCAAAAGAAACAGUCUUGCGCUCAACCAGAAAGUCUGUAAUCAUUUUAAGGGUU [U97C A140U] showed a self-cleavage of 1.02.
GUUAACGGUCAUAGGCCAUGGAAACUAGGAGCACCAUUUCGCUGCCAGUGAAGAAAUGAACAAAGAAAAUCUGGGCCAGGCAGGCAUCAAAAGAAAAAGUCUUGCGCUCAACCAGAAAGUCUGUAAUCAUUAUAAGGGUA [U97A U132A] gave a self-cleavage of 2.62.
Work on GUUAACGGUCAUAGGCCAUGGAAACUAGGAGCACCAUUUCGCUGCCAGUGAAGAAAUGAACAAAGAAAAUCUGGGCCAGGCAGGCAUCAAAAGAAAAAGUCUUGCGCUCAACCAGAAAGUCUGUAAUCAUUCUAAGGGUA [U97A U132C] yielded a self-cleavage of 0.95.
GUUAACGGUCAUAGGCCAUGGAAACUAGGAGCACCAUUUCGCUGCCAGUGAAGAAAUGAACAAAGAAAAUCUGGGCCAGGCAGGCAUCAAAAGAAAUCGUCUUGCGCUCAACCAGAAAGUCCGUAAUCAUUUUAAGGGUA [A98C U122C] gave a self-cleavage of 2.2.
With GUUAACGGUCAUAGGCCAUGGAAACUAGGAGCACCAUUUCGCUGCCAGUGAAGAAAUGAACAAAGAAAAUCUGGGCCAGGCAGGCAUCAAAAGAAACAGUCUUGCGCUCAACCAGAAAGUCUGUAAUCAUUUCAAGGGUA [U97C U133C] the self-cleavage was 1.53.
With GUUAACGGUCAUAGGCCAUGGAAACUAGGAGCACCAUUUCGCUGCCAGUGAAGAAAUGAACAAAGAAAAUCUGGGCCAGGCAGGCAUCAAAAGAAAAAGUCUUGCGCUCAACCAGAAAGUCUGUAACCAUUUUAAGGGUA [U97A U127C] the self-cleavage was 1.36.
In the case of GUUAACGGUCAUAGGCCAUGGAAACUAGGAGCACCAUUUCGCUGCCAGUGAAGAAAUGAACAAAGAAAAUCUGGGCCAGGCAGGCAUCAAAAGAAAUCGCCUUGCGCUCAACCAGAAAGUCUGUAAUCAUUUUAAGGGUA [A98C U100C], the self-cleavage is reported as 2.44.
In the case of GUUAACGGUCAUAGGCCAUGGAAACUAGGAGCACCAUUUCGCUGCCAGUGAAGAAAUGAACAAAGAAAAUCUGGGCCAGGCAGGCAUCAAAAGAAACAGUCUUGCGCUCAACCUGAAAGUCUGUAAUCAUUUUAAGGGUA [U97C A114U], the self-cleavage is reported as 0.1.
GUUAACGGUCAUAGGCCAUGGAAACUAGGAGCACCAUUUCGCUGCCAGUGAAGAAAUGAACAAAGAAAAUCUGGGCCAGGCAGGCAUCAAAAGAAACAGUCUUGCGCUCAACCAGAAAGUCUGUAAACAUUUUAAGGGUA [U97C U127A] gave a self-cleavage of 0.81.
GUUAACGGUCAUAGGCCAUGGAAACUAGGAGCACCAUUUCGCUGCCAGUGAAGAAAUGAACAAAGAAAAUCUGGGCCAGGCAGGCAUCAAAAGAAACAGUCUUGCGCUCAACCAGAAAGUCUGUAACCAUUUUAAGGGUA [U97C U127C] showed a self-cleavage of 1.25.
GUUAACGGUCAUAGGCCAUGGAAACUAGGAGCACCAUUUCGCUGCCAGUGAAGAAAUGAACAAAGAAAAUCUGGGCCAGGCAGGCAUCAAAAGAAACAGUCUUGCGCUCAACCAGAAAGUCUGUAAUCACUUUAAGGGUA [U97C U130C] gave a self-cleavage of 0.85.
GUUAACGGUCAUAGGCCAUGGAAACUAGGAGCACCAUUUCGCUGCCAGUGAAGAAAUGAACAAAGAAAAUCUGGGCCAGGCAGGCAUCAAAAGAAACAGUCUUGCGCUCAACCAGAAAGUCUGUAAUCAUUAUAAGGGUA [U97C U132A] showed a self-cleavage of 1.28.
With GUUAACGGUCAUAGGCCAUGGAAACUAGGAGCACCAUUUCGCUGCCAGUGAAGAAAUGAACAAAGAAAAUCUGGGCCAGGCAGGCAUCAAAAGAAACAGUCUUGCGCUCAACCAGAAAGUCUGUAAUCAUUCUAAGGGUA [U97C U132C] the self-cleavage was 1.45.
Work on GUUAACGGUCAUAGGCCAUGGAAACUAGGAGCACCAUUUCGCUGCCAGUGAAGAAAUGAACAAAGAAAAUCUGGGCCAGGCAGGCAUCAAAAGAAACAGCCUUGCGCUCAACCAGAAAGUCUGUAAUCAUUUUAAGGGUA [U97C U100C] yielded a self-cleavage of 2.15.
Variant GUUAACGGUCAUAGGCCAUGGAAACUAGGAGCACCAUUUCGCUGCCAGUGAAGAAAUGAACAAAGAAAAUCUGGGCCAGGCAGGCAUCAAAAGAAACAGUCUUGCGCUCGACCAGAAAGUCUGUAAUCAUUUUAAGGGUA [U97C A110G] has a self-cleavage of 0.11.
GUUAACGGUCAUAGGCCAUGGAAACUAGGAGCACCAUUUCGCUGCCAGUGAAGAAAUGAACAAAGAAAAUCUGGGCCAGGCAGGCAUCAAAAGAAACAGUCUUGCGCUCAACCAGAAAGUCUGUAAUCAUUUUAAUGGUA [U97C G136U] gave a self-cleavage of 1.55.
For GUUAACGGUCAUAGGCCAUGGAAACUAGGAGCACCAUUUCGCUGCCAGUGAAGAAAUGAACAAAGAAAAUCUGGGCCAGGCAGGCAUCAAAAGAAACAGUCUUGCGCUCAACCAGAAAGUCUGUAAUCAUCUUAAGGGUA [U97C U131C], the self-cleavage was 0.72.
GUUAACGGUCAUAGGCCAUGGAAACUAGGAGCACCAUUUCGCUGCCAGUGAAGAAAUGAACAAAGAAAAUCUGGGCCAGGCAGGCAUCAAAAGAAAAAGUCUUGCGCUCAACCAGAAAGUCCGUAAUCAUUUUAAGGGUA [U97A U122C] gave a self-cleavage of 1.83.
In the case of GUUAACGGUCAUAGGCCAUGGAAACUAGGAGCACCAUUUCGCUGCCAGUGAAGAAAUGAACAAAGAAAAUCUGGGCCAGGCAGGCAUCAAAAGAAAUCGUCUUGCGCUCAACCAGAAAGUCUGUAACCAUUUUAAGGGUA [A98C U127C], the self-cleavage is reported as 1.94.
In the case of GUUAACGGUCAUAGGCCAUGGAAACUAGGAGCACCAUUUCGCUGCCAGUGAAGAAAUGAACAAAGAAAAUCUGGGCCAGGCAGGCAUCAAAAGAAAUCGUCUUGCGCUCAACCAGAAAGUCUGUAAUCAUUUUAAGGGUA [A98C], the self-cleavage is reported as 0.96.
With GUUAACGGUCAUAGGCCAUGGAAACUAGGAGCACCAUUUCGCUGCCAGUGAAGAAAUGAACAAAGAAAAUCUGGGCCAGGCAGGCAUCAAAAGAAAUGGUCUUGCGCUCAACCAGAAAGUCUGUAAUCAUUUUAAGGGUA [A98G] the self-cleavage was 0.44.
For GUUAACGGUCAUAGGCCAUGGAAACUAGGAGCACCAUUUCGCUGCCAGUGAAGAAAUGAACAAAGAAAAUCUGGGCCAGGCAGGCAUCAAAAGAAAGAGUCUUGCGCUCAACCAGAAAGUCUGUAAUCAUUCUAAGGGUA [U97G U132C], the self-cleavage was 1.54.
GUUAACGGUCAUAGGCCAUGGAAACUAGGAGCACCAUUUCGCUGCCAGUGAAGAAAUGAACAAAGAAAAUCUGGGCCAGGCAGGCAUCAAAAGAAACAGUCUUGCGCUCAACAAGAAAGUCUGUAAUCAUUUUAAGGGUA [U97C C113A] showed a self-cleavage of 0.04.
For GUUAACGGUCAUAGGCCAUGGAAACUAGGAGCACCAUUUCGCUGCCAGUGAAGAAAUGAACAAAGAAAAUCUGGGCCAGGCAGGCAUCAAAAGAAAGAGUCUUGCGCCCAACCAGAAAGUCUGUAAUCAUUUUAAGGGUA [U97G U108C], the self-cleavage was 0.
GUUAACGGUCAUAGGCCAUGGAAACUAGGAGCACCAUUUCGCUGCCAGUGAAGAAAUGAACAAAGAAAAUCUGGGCCAGGCAGGCAUCAAAAGAAAGAGUCUCGCGCUCAACCAGAAAGUCUGUAAUCAUUUUAAGGGUA [U97G U103C] showed a self-cleavage of 0.69.
GUUAACGGUCAUAGGCCAUGGAAACUAGGAGCACCAUUUCGCUGCCAGUGAAGAAAUGAACAAAGAAAAUCUGGGCCAGGCAGGCAUCAAAAGAAACAGUCUUGCGCUCAACCAGAAAGUCUGCAAUCAUUUUAAGGGUA [U97C U124C] showed a self-cleavage of 0.17.
Work on GUUAACGGUCAUAGGCCAUGGAAACUAGGAGCACCAUUUCGCUGCCAGUGAAGAAAUGAACAAAGAAAAUCUGGGCCAGGCAGGCAUCAAAAGAAACAGUCUUGCGCUCAACCAGAAAGUCAGUAAUCAUUUUAAGGGUA [U97C U122A] yielded a self-cleavage of 1.65.
GUUAACGGUCAUAGGCCAUGGAAACUAGGAGCACCAUUUCGCUGCCAGUGAAGAAAUGAACAAAGAAAAUCUGGGCCAGGCAGGCAUCAAAAGAAACAGUCUUGCGCUCAACCAGAAAGUCGGUAAUCAUUUUAAGGGUA [U97C U122G] showed a self-cleavage of 2.57.
Variant GUUAACGGUCAUAGGCCAUGGAAACUAGGAGCACCAUUUCGCUGCCAGUGAAGAAAUGAACAAAGAAAAUCUGGGCCAGGCAGGCAUCAAAAGAAACAGUCUUGCGCUCAACCAGAAAGUCUGUAAUCAUUUUGAGGGUA [U97C A134G] has a self-cleavage of 1.02.
For GUUAACGGUCAUAGGCCAUGGAAACUAGGAGCACCAUUUCGCUGCCAGUGAAGAAAUGAACAAAGAAAAUCUGGGCCAGGCAGGCAUCAAAAGAAACAGUCUUGCGCUCAACCAGGAAGUCUGUAAUCAUUUUAAGGGUA [U97C A116G], the self-cleavage was 0.77.
Work on GUUAACGGUCAUAGGCCAUGGAAACUAGGAGCACCAUUUCGCUGCCAGUGAAGAAAUGAACAAAGAAAAUCUGGGCCAGGCAGGCAUCAAAAGAAACAGUCUUGCGCUCAACCAGUAAGUCUGUAAUCAUUUUAAGGGUA [U97C A116U] yielded a self-cleavage of 0.11.
In the case of GUUAACGGUCAUAGGCCAUGGAAACUAGGAGCACCAUUUCGCUGCCAGUGAAGAAAUGAACAAAGAAAAUCUGGGCCAGGCAGGCAUCAAAAGAAAGGGUCUUGCGCUCAACCAGAAAGUCUGUAAUCAUUUUAAGGGUA [U97G A98G], the self-cleavage is reported as 1.98.
In the case of GUUAACGGUCAUAGGCCAUGGAAACUAGGAGCACCAUUUCGCUGCCAGUGAAGAAAUGAACAAAGAAAAUCUGGGCCAGGCAGGCAUCAAAAGAAAAAGUCUUGCGCACAACCAGAAAGUCUGUAAUCAUUUUAAGGGUA [U97A U108A], the self-cleavage is reported as 0.03.
Work on GUUAACGGUCAUAGGCCAUGGAAACUAGGAGCACCAUUUCGCUGCCAGUGAAGAAAUGAACAAAGAAAAUCUGGGCCAGGCAGGCAUCAAAAGAAAAAGUCUUGCGCCCAACCAGAAAGUCUGUAAUCAUUUUAAGGGUA [U97A U108C] yielded a self-cleavage of 0.01.
Variant GUUAACGGUCAUAGGCCAUGGAAACUAGGAGCACCAUUUCGCUGCCAGUGAAGAAAUGAACAAAGAAAAUCUGGGCCAGGCAGGCAUCAAAAGAAACAGUCUUGCGCUCAACCAGAAUGUCUGUAAUCAUUUUAAGGGUA [U97C A118U] has a self-cleavage of 1.62.
Work on GUUAACGGUCAUAGGCCAUGGAAACUAGGAGCACCAUUUCGCUGCCAGUGAAGAAAUGAACAAAGAAAAUCUGGGCCAGGCAGGCAUCAAAAGAAACAGUCUUGCGCUCAACCAGAAGGUCUGUAAUCAUUUUAAGGGUA [U97C A118G] yielded a self-cleavage of 0.77.
